T1: human MSLN-R1-his protein (human, UniProt Q13421 296-390)
T1 construct: Region 1 of human MSLN, His-tagged; also called human MSLN-R1 protein; hMSLN-R1-his; not shown: His tag
T1 chain: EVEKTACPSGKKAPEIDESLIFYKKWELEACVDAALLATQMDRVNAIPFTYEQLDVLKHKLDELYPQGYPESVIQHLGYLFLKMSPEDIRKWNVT

B1: S009-F2.21.4 (antibody, human IgG1, kappa, V domains shown)
VH: EVQLQQSGPELVKPGASVKIPCKASGYTFTDYNMDWVKQSHGKSLEWIGDINPNNGGSIYNQRFKGKATLTVDKSSSTAYMELRSLTSEDSAVYYCARRAYYSTGYFDVWGTGTTVTVSS
VL: QIVLTQSPALMSASPGEKVTITCSASSSISYMHWFQQKPGTSPKLWIYSTSTLASGVPARFSGSGSGTSYSLTISRMEAEDTATYYCQQRSSYPPTFGGGTKLEIKR
notes: Human-murine chimeric antibody, human IgG1/kappa constant regions
B2: S009-F2.13.3 (antibody, human IgG1, kappa, V domains shown)
VH: QVQLQQSGAELMKPGASVKLSCKATGYTFTGYWIEWVKQRPGHGLEWIGEILPGSGSTNYNEKFKGKATFTADTSSNTAYMQLSSLTTEDSAIYYCARAGAWFAYWGQGTLVTVSA
VL: QIVLTQSPAIMSASLGERVTMTCTASSSVSSSYLHWYQQKPGSSPKLWTYSTSNLASGVPARFSGSGSGTSYSLTISSMEAEDAATYYCHQYHRSPWTFGGGTKLEIKR
notes: as for B1
B3: S009-F2-56.12 (antibody, human IgG1, kappa, V domains shown)
VH: DVQLQESGPGMVKPSQSLSLTCTVTGYSITSGYDWHWIRHFPGNKLEWMGYISYSGSTNYNPSLKSRISITHDTSKNHFFLKLKSVTTEDTATYYCARGTGPDYWGQGTTLTVSS
VL: DIVMTQSQKFMSTSVGDRVSITCKASQNVRTAVAWYQQKPGQSPKALIHLPSNRHTGVPDRFTGSGSGTDFTLTISNVQSEDLADYFCLQHWNYPLTFGGGTKLEIKR
notes: as for B1
B4: S009-F2.16.10 (antibody, human IgG1, kappa, V domains shown)
VH: QVQLQQPGAELIKPGASVKLSCKASGYTFTSYWMHWVKQRPGQGLEWIGIIHPNIGSTNYNERFKSKATLTVDKSSSTAYMQLSSLTSEDSAVYYCARRSSNYGDWYFDVWGTGTTVTVSS
VL: DIVMTQSHRFMSTSVGDRVSITCKASQDVGTSVAWYQQKPGQSPKLLIYWASTQHTGVPDRFTGSGSGTDFTLTINNVQSEDLLDYFCQQYSSYPLTFGAGTKLELKR
notes: as for B1
B5: S009-F2.17.3 (antibody, human IgG1, kappa, V domains shown)
VH: QVQLQQPGTELVTPGASVKLSCKASGYSFTSYWMHWVKQRPGQGLEWIGNINPSNGDTFYNEKFKNKATLTVDKSSSTAYMQLSSLTSEDSAVYYCARGWLRDYWGQGTTLTVSS
VL: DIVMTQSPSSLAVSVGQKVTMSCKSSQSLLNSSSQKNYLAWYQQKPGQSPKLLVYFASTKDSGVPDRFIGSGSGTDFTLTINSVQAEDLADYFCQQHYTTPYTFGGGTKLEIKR
notes: as for B1
B6: S009-F2.38.12 (antibody, human IgG1, kappa, V domains shown)
VH: QVQLQQPGTELVKPGASVKLSCKASGYTFTSYWMHWVKQRPGQGLEWIGNINPSNGGTNYNEKIKNKATLTVDKSSSTAYMQLSSLTSEDSAVYYCARWNYYGNYPFDYWGQGTTLTVSS
VL: DIVMTQSQKFMSTTVGDRVSITCKASQNVGTAVAWYQQKPGQSPKLLIYSASNRYTGVPDRFTGSGSGTDFTLTISNMQSEDLADYFCQQYSSYPLTFGAGTKLELKR
notes: human-murine chimeric antibody, human IgG1/kappa constant regions
B7: S009-F1.25.10 (antibody, human IgG1, kappa, V domains shown)
VH: EVQLQQSGPELVKPGASLKISCKASGYSFTDYTMNWVKQSHGKNLEWIGLFNPYNGGISYNQKFKGKATLTVDKSSNTAYMELLSLTSDDSAVYFCARDGRGGFYAMDYWGQGTSVTVSS
VL: DIQMTQTTSSLSASLGDRVTISCRASQDISIYLNWYQQKPDGPVKLLIYYTSRLHSGVPSRFSGSGSGTDFSLTISNLEQEDIATYFCQQGYTLPPWTFGGGTKLEIKR
notes: as for B6
B8: S009-F2.21.4 (antibody, human IgG1, kappa, V domains shown)
VH: B1 VH
VL: B1 VL
notes: as for B6
B9: S009-F1.62.9 (antibody, human IgG1, kappa, V domains shown)
VH: EVQLQQSGADLVKPGASVKLSCTVFGLNFKDTFMHWVRQRPEQGLEWIGRIDPANDNSIYGPKFQDKATITADTSSNTAYLHLSSLTSEDTAVYYCLYFDNWGHGTTLTVSS
VL: DIVMTQAASSEPVTPGESVSISCRSDKSLLHSNGHNYLYWFLQRPGQSPHLLIYRMSNLASGVPDRFSGSGSGTAFTLRISRVEAEDVGVYYCMQHLEYPLTFGAGTKLELKR
notes: as for B6
B10: S009-F1.59.1 (antibody, human IgG1, kappa, V domains shown)
VH: EVKLEGSGGGLVQPGGSMMLSCVATGFTFSSYWMNWVRQSPDRGLEWVAEIRLKSNGFAAFYAESVKGRFTISRDDSKSSVYLQMNNLRTEDTGIYYCTYFVHWGQGILVTVSE
VL: DIVLTQSPTSLAVSLGQRATISCRTSESVEYFGTILIQWYQQKPGQPPKLLIFGASNVESGVPARFSGSGSGTDFSLNIHPVEEEDIAMYFCQQNRKVPYTFGGGTTLELKR
notes: as for B6
B11: S009-F1.7.14 (antibody, human IgG1, kappa)
heavy: not shown
light: QIVLTQSPAIMSASPGEKVTISCSASSSVSYMYWYQQKPGSSPKPWISRTSNLASGVPARFSGSGSGTSYSLTISSMEAEDAATYYCQQYHSYPPTLGAGTKLELKRTVAAPSVFIFPPSDEQLKSGTASVVCLLNNFYPREAKVQWKVDNALQSGNSQESVTEQDSKDSTYSLSSTLTLSKADYEKHKVYACEVTHQGLSSPVTKSFNRGEC
notes: as for B6

molecular target: T2, human MSLN-FL-his protein (human, UniProt Q13421 296-580); assay: ELISA, coated MSLN full-length;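 further: binding of chimeric antibodies to plate-bound antigen, read by TMB colour after acid stop, antibody incubated 2 h at 37 °C, negative control antibody run alongside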
T2 construct: also called human MSLN full-length protein; hMSLN-FL-his; not shown: His tag

| Binder | OD450 at 0.0001 nM | OD450 at 0.001 nM | OD450 at 0.01 nM | OD450 at 0.1 nM | OD450 at 1 nM | OD450 at 10 nM | OD450 at 100 nM | OD450 at none (no antibody) |
| --- | --- | --- | --- | --- | --- | --- | --- | --- |
| B1 | 0.05 OD450 | 0.09 OD450 | 0.41 OD450 | 1.93 OD450 | 2.46 OD450 | 2.56 OD450 | 2.95 OD450 | 0.06 OD450 |
| B2 | 0.06 OD450 | 0.08 OD450 | 0.26 OD450 | 1.3 OD450 | 2.08 OD450 | 2.37 OD450 | 2.77 OD450 | 0.06 OD450 |
| B3 | 0.06 OD450 | 0.07 OD450 | 0.16 OD450 | 0.37 OD450 | 0.41 OD450 | 0.37 OD450 | 0.4 OD450 | 0.07 OD450 |
| B4 | 0.05 OD450 | 0.09 OD450 | 0.41 OD450 | 1.71 OD450 | 2.22 OD450 | 2.4 OD450 | 2.92 OD450 | 0.06 OD450 |
| B5 | 0.05 OD450 | 0.06 OD450 | 0.13 OD450 | 0.64 OD450 | 1.93 OD450 | 2.48 OD450 | 2.81 OD450 | 0.06 OD450 |

molecular target: T3, human MSLN-FL-his protein (human, UniProt Q13421 296-580); assay: SPR (Biacore), antibody captured on Protein A chip;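 further: measured at 25 °C, analyte injected 240 s in five twofold dilutions from 200 nM, dissociation up to 600 s, double-referenced, fitted with Langmuir 1:1 model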
T3 construct: made in HEK293E cells, purified on nickel column; also called hMSLN-FL-his; human MSLN full-length protein; not shown: His tag
T3 sequence (Q13421 other isoform, or with tags, fused parts or gaps): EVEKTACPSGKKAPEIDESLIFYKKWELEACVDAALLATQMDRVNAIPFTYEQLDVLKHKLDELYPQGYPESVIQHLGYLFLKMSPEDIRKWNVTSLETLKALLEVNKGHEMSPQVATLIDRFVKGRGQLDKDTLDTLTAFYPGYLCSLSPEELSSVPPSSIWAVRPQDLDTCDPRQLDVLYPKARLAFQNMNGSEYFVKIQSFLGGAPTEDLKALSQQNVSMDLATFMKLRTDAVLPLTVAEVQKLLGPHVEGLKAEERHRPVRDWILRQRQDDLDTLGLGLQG

| Binder | Kd | koff | kon |
| --- | --- | --- | --- |
| B6 | 30.8 nM | 0.0109 s⁻¹ | 354000 M⁻¹ s⁻¹ |
| B7 | 186 nM | 0.00067 s⁻¹ | 3600 M⁻¹ s⁻¹ |
| B8 | 29.1 nM | 0.0227 s⁻¹ | 780000 M⁻¹ s⁻¹ |
| B9 | 745 nM | 0.000348 s⁻¹ | 467 M⁻¹ s⁻¹ |
| B10 | 563 nM | 0.000922 s⁻¹ | 1640 M⁻¹ s⁻¹ |
| B11 | 12.8 nM | 0.00709 s⁻¹ | 553000 M⁻¹ s⁻¹ |

Molecular target: T1, human MSLN-R1-his protein
Assay: ELISA, coated MSLN-R1;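 further: serially diluted chimeric antibodies bound to the coated, BSA-blocked plate for 2 h at 37 °C, with TMB colour read after acid stop and a negative control antibody alongside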
Description: The plate was sealed with a plastic film and incubated at 4° C. overnight. The next day, the plate was washed twice with PBST, and a blocking buffer [PBS+2% (w/w) BSA] was added for blocking at room temperature for 2 h. The blocking buffer was discarded, and a chimeric antibody or negative control antibody serially diluted from 100 nM was added at 50 μL/well. After incubation at 37° C. for 2 h, the plate was washed 3 times with PBST. […] After incubation at 37° C. for 2 h, the plate was washed 5 times with PBST. A TMB substrate was added at 50 μL/well for incubation at room temperature for 5-10 min, and then a stop solution (1.0 N HCl) was added at 50 μL/well.

| Binder | OD450 at 0.0001 nM | OD450 at 0.001 nM | OD450 at 0.01 nM | OD450 at 0.1 nM | OD450 at 1 nM | OD450 at 10 nM | OD450 at 100 nM | OD450 at none (no antibody) |
| --- | --- | --- | --- | --- | --- | --- | --- | --- |
| B1 | 0.05 OD450 | 0.05 OD450 | 0.05 OD450 | 0.05 OD450 | 0.05 OD450 | 0.05 OD450 | 0.06 OD450 | 0.06 OD450 |
| B2 | 0.05 OD450 | 0.05 OD450 | 0.05 OD450 | 0.05 OD450 | 0.05 OD450 | 0.05 OD450 | 0.06 OD450 | 0.06 OD450 |
| B4 | 0.05 OD450 | 0.06 OD450 | 0.09 OD450 | 0.44 OD450 | 0.94 OD450 | 1.62 OD450 | 2.03 OD450 | 0.06 OD450 |
| B5 | 0.05 OD450 | 0.05 OD450 | 0.04 OD450 | 0.05 OD450 | 0.04 OD450 | 0.06 OD450 | 0.07 OD450 | 0.06 OD450 |

Source: patent US20250250357A1 (NANJING ZAIMING PHARMACEUTICAL, published 2025)
